According to PMC9608196:

How the values were obtained:
[1] = target: His6-tagged full-length gp24 (tail fiber protein of myocyanophage Pam3) (cyanophage Pam3); assay: SDS-PAGE of samples that were not boiled; purified protein treated with beta-mercaptoethanol, not boiled
[2] = target: His6-tagged full-length gp24 (tail fiber protein of myocyanophage Pam3) (cyanophage Pam3); assay: SEC; individually expressed His-gp24 or His-gp25; Superdex 200 Increase 10/300 column; peaks analysed by SDS-PAGE
[3] = target: His6-tagged full-length gp24 (tail fiber protein of myocyanophage Pam3) (cyanophage Pam3); assay: SEC-MALS; Superdex 200 Increase 10/300 GL in 20 mM Tris-HCl pH 7.0, 100 mM NaCl, 7 mM beta-mercaptoethanol; 1 mg/mL, 100 uL
[4] = target: His6-tagged full-length gp24 (tail fiber protein of myocyanophage Pam3) (cyanophage Pam3); assay: SEC; His-gp24 co-expressed with untagged gp25 in E. coli, purified by Ni-NTA; Superdex 200 Increase 10/300 column; peaks analysed by SDS-PAGE
[5] = target: His6-tagged full-length gp25 (tail fiber chaperone of myocyanophage Pam3), expressed alone (cyanophage Pam3); assay: SEC; individually expressed His-gp24 or His-gp25; Superdex 200 Increase 10/300 column; peaks analysed by SDS-PAGE

“His6-tagged full-length gp24 (tail fiber protein of myocyanophage Pam3) (natural protein)” showed a stoichiometry N [1] of 3, a stoichiometry N [2] of 3 and a stoichiometry N [3] of 3. For the same substance, the stoichiometry N [4] was 3.

“His6-tagged full-length gp25 (tail fiber chaperone of myocyanophage Pam3), expressed alone (natural protein)” showed a stoichiometry N [5] of 3.

“gp25 (tail fiber chaperone of myocyanophage Pam3), untagged, co-expressed with His-gp24 (natural protein)” gave a stoichiometry N (gp25 per gp24 (3:3)) [3] of 1.
